Laboratory results: publication PMC3734285, “Expression and Function of the Lipocalin-2 (24p3/NGAL) Receptor in Rodent and Human Intestinal Epithelia” (PLoS ONE, 2013)
Blank lines part the entries; values can stand above or below the substance they belong to.

Columns and labels:
[1] = biological target: hNGAL-R (Homo sapiens) (UniProt Q8WUG5); details: cited from earlier work
[2] = biological target: human lipocalin-2/NGAL receptor (hNGAL-R) (human (endogenous in Caco-2 BBE)) (UniProt Q8WUG5)
[3] = biological target: human lipocalin-2/NGAL receptor (hNGAL-R) (human (endogenous in Caco-2 BBE)) (UniProt Q8WUG5); experiment: MST; fixed amounts of colon-like Caco-2 BBE plasma membrane vesicles pre-incubated 5 min at room temperature with varying A488-PC3 (10-1000 nM); 50 mM Tris pH 7.4, 150 mM NaCl, 10 mM MgCl2, 0.05% Tween-20; Hill fit with coefficient 1.0
[4] = biological target: human lipocalin-2/NGAL receptor (hNGAL-R) (human (endogenous in Caco-2 BBE)) (UniProt Q8WUG5); experiment: MST; as a1 but co-incubated with 500 pM hNGAL as a binding competitor to A488-PC3
[5] = biological target: human lipocalin-2/NGAL receptor (hNGAL-R) (human (endogenous in Caco-2 BBE)) (UniProt Q8WUG5); remark: listed apart in the source

Chain of human lipocalin-2/NGAL receptor (hNGAL-R) (human (endogenous in Caco-2 BBE)) (Q8WUG5 112-649): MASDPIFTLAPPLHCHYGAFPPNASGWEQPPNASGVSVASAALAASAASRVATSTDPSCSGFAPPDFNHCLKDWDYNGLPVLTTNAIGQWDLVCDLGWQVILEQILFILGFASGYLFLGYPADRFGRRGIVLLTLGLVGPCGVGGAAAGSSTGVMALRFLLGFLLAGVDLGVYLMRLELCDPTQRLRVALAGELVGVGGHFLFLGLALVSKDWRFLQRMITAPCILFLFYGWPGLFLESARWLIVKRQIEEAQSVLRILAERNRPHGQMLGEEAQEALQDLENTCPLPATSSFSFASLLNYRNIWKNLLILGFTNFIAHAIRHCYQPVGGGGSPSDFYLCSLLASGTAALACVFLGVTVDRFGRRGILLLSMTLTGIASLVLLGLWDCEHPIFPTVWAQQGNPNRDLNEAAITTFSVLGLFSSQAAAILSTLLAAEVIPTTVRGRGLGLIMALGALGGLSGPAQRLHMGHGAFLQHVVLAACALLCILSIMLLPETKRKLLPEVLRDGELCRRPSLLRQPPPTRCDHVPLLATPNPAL
Chain of Alexa Fluor 546-labelled metallothionein (rabbit apo-MT-2) (P18055 whole entry): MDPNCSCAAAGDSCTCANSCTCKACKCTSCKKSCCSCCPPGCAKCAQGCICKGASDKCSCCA
Chain of hNGAL (lipocalin-2) (P80188 21-198): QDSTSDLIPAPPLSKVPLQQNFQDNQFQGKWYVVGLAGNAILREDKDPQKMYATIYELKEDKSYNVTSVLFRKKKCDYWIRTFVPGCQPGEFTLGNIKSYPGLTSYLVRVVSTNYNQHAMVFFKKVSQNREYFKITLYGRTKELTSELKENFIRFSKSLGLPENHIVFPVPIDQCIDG
Chain of Alexa Fluor 546-transferrin from human serum (P02787 20-698): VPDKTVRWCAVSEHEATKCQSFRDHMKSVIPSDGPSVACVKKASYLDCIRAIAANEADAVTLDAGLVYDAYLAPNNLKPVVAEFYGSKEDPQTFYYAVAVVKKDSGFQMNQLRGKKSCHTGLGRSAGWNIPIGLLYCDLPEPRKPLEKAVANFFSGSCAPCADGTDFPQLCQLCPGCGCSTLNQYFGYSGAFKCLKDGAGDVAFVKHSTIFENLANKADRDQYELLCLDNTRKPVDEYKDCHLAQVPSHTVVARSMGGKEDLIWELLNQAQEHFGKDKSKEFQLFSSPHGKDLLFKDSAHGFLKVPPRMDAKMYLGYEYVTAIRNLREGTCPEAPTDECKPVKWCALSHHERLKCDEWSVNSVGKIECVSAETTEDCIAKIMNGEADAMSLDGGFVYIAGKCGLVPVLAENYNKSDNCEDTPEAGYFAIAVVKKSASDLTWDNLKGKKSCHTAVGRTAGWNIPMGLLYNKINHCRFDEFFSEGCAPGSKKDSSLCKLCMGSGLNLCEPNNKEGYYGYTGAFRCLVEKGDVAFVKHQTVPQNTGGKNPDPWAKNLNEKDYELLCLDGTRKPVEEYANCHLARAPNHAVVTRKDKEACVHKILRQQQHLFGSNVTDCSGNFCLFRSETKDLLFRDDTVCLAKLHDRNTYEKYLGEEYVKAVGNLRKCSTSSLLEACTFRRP
Chain of hNGAL-R (Homo sapiens) (Q8WUG5 whole entry): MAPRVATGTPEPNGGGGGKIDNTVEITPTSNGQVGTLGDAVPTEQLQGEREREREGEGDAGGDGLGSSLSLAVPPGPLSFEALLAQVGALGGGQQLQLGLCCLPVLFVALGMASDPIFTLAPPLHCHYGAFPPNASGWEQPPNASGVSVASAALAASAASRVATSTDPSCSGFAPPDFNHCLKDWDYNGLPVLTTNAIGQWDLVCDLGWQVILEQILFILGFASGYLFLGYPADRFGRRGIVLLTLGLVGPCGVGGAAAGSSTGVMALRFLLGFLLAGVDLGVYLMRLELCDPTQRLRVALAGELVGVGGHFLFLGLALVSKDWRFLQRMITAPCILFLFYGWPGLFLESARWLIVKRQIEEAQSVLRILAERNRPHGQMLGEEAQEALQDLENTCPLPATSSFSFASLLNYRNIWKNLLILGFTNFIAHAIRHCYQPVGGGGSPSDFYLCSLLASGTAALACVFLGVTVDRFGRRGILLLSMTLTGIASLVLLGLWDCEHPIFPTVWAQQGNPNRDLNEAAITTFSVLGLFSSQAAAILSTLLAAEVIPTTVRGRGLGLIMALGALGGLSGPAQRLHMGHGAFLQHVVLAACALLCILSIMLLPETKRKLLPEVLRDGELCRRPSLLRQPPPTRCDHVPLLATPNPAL

Substance: hNGAL (lipocalin-2) (from UniProt P80188)
Kd [1]: 0.092 nM

inhibition by 500 pM apical hNGAL of the apical decrease of 700 nM A546-MT in colon-like Caco-2 BBE Transwell monolayers (AUC over 8 h) [2]: 40%
Substance: Alexa Fluor 546-labelled metallothionein (rabbit apo-MT-2) (from UniProt P18055 1-62) (natural protein)

inhibition by 500 pM apical hNGAL of the apical decrease of 700 nM A546-Tf in colon-like Caco-2 BBE Transwell monolayers (AUC over 8 h) [2]: 25%
Substance: Alexa Fluor 546-transferrin from human serum (from UniProt P02787 20-698) (natural protein)

EC50 [3]: 18.6 nM | EC50 with 500 pM hNGAL [4]: 225 nM | inhibition by 500 pM apical hNGAL of the apical decrease of 700 nM A488-PC3 in colon-like Caco-2 BBE Transwell monolayers (AUC over 8 h) [2]: 25% | internalization of A488-PC3 (up to 5.6 µM, 24 h) by colon-like Caco-2 BBE cells, two-site fit, first app KD [5]: 90 nM
Substance: Alexa Fluor 488 (A488)-PC3 (phytochelatin PC3) (peptide)
